Assay results reported in the supplement of paper PMC10567573.

B1: CCND2 (parent)
chain: YFKCVQKDIQPYMRRMVATWMLEV
B2: STX5 (parent)
chain: ESTIVELGSIFQQLAHMVKEQEET
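Note: lentivirally expressed fusions sorted by FACS into six bins by GFP to DsRed ratio, PSI derived from sequencing read proportions per bin multiplied by bin number.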

Variants of: B1
Assay: protein stability index of a GFP-peptide fusion (GPS, HEK-293T) (PSI 1-6); higher = more stable
Conditions: c terminus: a fixed tail appended
For YFKCVQKDIQPYMNRMVATWMLEV [R14N], the protein stability index was 2.06.
In the case of YFKCVQKDIQPYMDRMVATWMLEV [R14D], the protein stability index is reported as 2.16.
In the case of YFKCVQKDIQPYMRRMCATWMLEV [V17C], the protein stability index is reported as 3.2.
Variant YFKCVQKDIQPYMRRMMATWMLEV [V17M] has a protein stability index of 2.
In the case of YFKCVQKDIQPYMRRMTATWMLEV [V17T], the protein stability index is reported as 3.15.
YFKCVQKDIQPYMRRMVATWMLEL [V24L] gave a protein stability index of 2.68.
Variant YFKCVQKDIQPYMRRMVQTWMLEV [A18Q] has a protein stability index of 3.45.
For YFKCVQKDIQPYMRRMVNTWMLEV [A18N], the protein stability index was 3.36.
In the case of YFKCVQKDIQPYMRRMVKTWMLEV [A18K], the protein stability index is reported as 2.69.
YFKCVQKKIQPYMRRMVATWMLEV [D8K] gave a protein stability index of 2.94.
With YFKCVQKEIQPYMRRMVATWMLEV [D8E] the protein stability index was 2.37.
YFKCVQKDIQPYARRMVATWMLEV [M13A] showed a protein stability index of 3.23.
With YFKCVQKDIQPYRRRMVATWMLEV [M13R] the protein stability index was 2.42.
YFKCVQWDIQPYMRRMVATWMLEV [K7W] gave a protein stability index of 2.12.
Work on YFKCVQGDIQPYMRRMVATWMLEV [K7G] yielded a protein stability index of 2.97.
YFKCVQFDIQPYMRRMVATWMLEV [K7F] showed a protein stability index of 1.98.
In the case of YFKCVQKDYQPYMRRMVATWMLEV [I9Y], the protein stability index is reported as 3.57.
For YFKCCQKDIQPYMRRMVATWMLEV [V5C], the protein stability index was 2.36.
With YFKCLQKDIQPYMRRMVATWMLEV [V5L] the protein stability index was 2.71.
In the case of YFKCSQKDIQPYMRRMVATWMLEV [V5S], the protein stability index is reported as 1.43.
YFKCTQKDIQPYMRRMVATWMLEV [V5T] gave a protein stability index of 3.62.
YVKCVQKDIQPYMRRMVATWMLEV [F2V] gave a protein stability index of 2.15.
In the case of YDKCVQKDIQPYMRRMVATWMLEV [F2D], the protein stability index is reported as 2.15.
Variant YEKCVQKDIQPYMRRMVATWMLEV [F2E] has a protein stability index of 4.07.
With YFKCVQKDIQPYMRRMVATWMGEV [L22G] the protein stability index was 2.07.
For YFKCVQKDIQPYMRRMVATWMCEV [L22C], the protein stability index was 2.25.
YFKCVQKDIQPYMRRMVATWMEEV [L22E] showed a protein stability index of 1.74.
With YFKCVQKDIQPYMRRMVATWMREV [L22R] the protein stability index was 1.96.
YFDCVQKDIQPYMRRMVATWMLEV [K3D] showed a protein stability index of 3.48.
Work on YFWCVQKDIQPYMRRMVATWMLEV [K3W] yielded a protein stability index of 2.44.
In the case of YFHCVQKDIQPYMRRMVATWMLEV [K3H], the protein stability index is reported as 3.13.
Variant YFKCVQKDIQPYMRRMVAIWMLEV [T19I] has a protein stability index of 2.75.
YFKCVQKDIQPYMRRMVAHWMLEV [T19H] showed a protein stability index of 3.25.
With YFKCVQKDIQPYMRRMVAGWMLEV [T19G] the protein stability index was 2.5.
YFKCVQKDIQPYMRRMVAMWMLEV [T19M] gave a protein stability index of 1.84.
In the case of AFKCVQKDIQPYMRRMVATWMLEV [Y1A], the protein stability index is reported as 3.09.
IFKCVQKDIQPYMRRMVATWMLEV [Y1I] showed a protein stability index of 2.47.
YFKCVQKDITPYMRRMVATWMLEV [Q10T] showed a protein stability index of 2.71.
YFKCVQKDIFPYMRRMVATWMLEV [Q10F] gave a protein stability index of 1.99.
For YFKCVQKDIRPYMRRMVATWMLEV [Q10R], the protein stability index was 2.02.
For YFKCVQKDINPYMRRMVATWMLEV [Q10N], the protein stability index was 3.3.
YFKCVQKDIQPYMRRMVATWMLFV [E23F] showed a protein stability index of 2.5.
YFKCVQKDIQPYMRWMVATWMLEV [R15W] showed a protein stability index of 3.97.
YFKCVQKDIQPYMRCMVATWMLEV [R15C] showed a protein stability index of 3.12.
With YFKCVQKDIQPYMRSMVATWMLEV [R15S] the protein stability index was 2.55.
YFKCVQKDIQPYMRRIVATWMLEV [M16I] gave a protein stability index of 3.33.
YFKCVQKDIQPYMRRDVATWMLEV [M16D] showed a protein stability index of 2.09.
Work on YFKCVQKDIQPYMRRPVATWMLEV [M16P] yielded a protein stability index of 3.25.
With YFKCVQKDIQVYMRRMVATWMLEV [P11V] the protein stability index was 2.82.
Variant YFKCVQKDIQMYMRRMVATWMLEV [P11M] has a protein stability index of 3.69.
In the case of YFKCVQKDIQTYMRRMVATWMLEV [P11T], the protein stability index is reported as 2.34.
Work on YFKKVQKDIQPYMRRMVATWMLEV [C4K] yielded a protein stability index of 2.45.
For YFKNVQKDIQPYMRRMVATWMLEV [C4N], the protein stability index was 3.42.
In the case of YFKMVQKDIQPYMRRMVATWMLEV [C4M], the protein stability index is reported as 2.81.
Variant YFKCVQKDIQPYMRRMVATWWLEV [M21W] has a protein stability index of 4.25.
YFKCVQKDIQPYMRRMVATAMLEV [W20A] gave a protein stability index of 2.36.
Variant YFKCVQKDIQPYMRRMVATFMLEV [W20F] has a protein stability index of 2.34.
YFKCVQKDIQPYMRRMVATCMLEV [W20C] showed a protein stability index of 3.44.
In the case of YFKCVQKDIQPYMRRMVATYMLEV [W20Y], the protein stability index is reported as 3.49.
Variant YFKCVQKDIQPYMRRMVATVMLEV [W20V] has a protein stability index of 3.41.
YFKCVQKDIQPMMRRMVATWMLEV [Y12M] showed a protein stability index of 5.01.

Variants of: B2
Assay: as above
Conditions: c terminus: a fixed tail appended
Variant ESTIVESGSIFQQLAHMVKEQEET [L7S] has a protein stability index of 5.42.
Variant ESTIVEDGSIFQQLAHMVKEQEET [L7D] has a protein stability index of 5.12.
With ESTIVENGSIFQQLAHMVKEQEET [L7N] the protein stability index was 4.96.
For ESTIVETGSIFQQLAHMVKEQEET [L7T], the protein stability index was 4.5.
Variant ESTIVEGGSIFQQLAHMVKEQEET [L7G] has a protein stability index of 5.65.
ESTIVERGSIFQQLAHMVKEQEET [L7R] gave a protein stability index of 5.13.
For ESTIVECGSIFQQLAHMVKEQEET [L7C], the protein stability index was 3.74.
For ESTIVEHGSIFQQLAHMVKEQEET [L7H], the protein stability index was 4.9.
For ESTIVEVGSIFQQLAHMVKEQEET [L7V], the protein stability index was 4.25.
With ESTIVEQGSIFQQLAHMVKEQEET [L7Q] the protein stability index was 4.89.
Work on ESTIVEIGSIFQQLAHMVKEQEET [L7I] yielded a protein stability index of 2.16.
ESTIVEMGSIFQQLAHMVKEQEET [L7M] gave a protein stability index of 2.48.
With ESTIVEPGSIFQQLAHMVKEQEET [L7P] the protein stability index was 4.75.
ESTIVEFGSIFQQLAHMVKEQEET [L7F] gave a protein stability index of 3.03.
Variant ESTIVEEGSIFQQLAHMVKEQEET [L7E] has a protein stability index of 5.22.
With ESTIVEKGSIFQQLAHMVKEQEET [L7K] the protein stability index was 5.07.
Work on EGTIVELGSIFQQLAHMVKEQEET [S2G] yielded a protein stability index of 1.78.
EVTIVELGSIFQQLAHMVKEQEET [S2V] showed a protein stability index of 3.07.
Variant ETTIVELGSIFQQLAHMVKEQEET [S2T] has a protein stability index of 2.05.
EKTIVELGSIFQQLAHMVKEQEET [S2K] gave a protein stability index of 2.24.
Work on EMTIVELGSIFQQLAHMVKEQEET [S2M] yielded a protein stability index of 1.
Variant ERTIVELGSIFQQLAHMVKEQEET [S2R] has a protein stability index of 1.25.
EFTIVELGSIFQQLAHMVKEQEET [S2F] gave a protein stability index of 2.93.
For ELTIVELGSIFQQLAHMVKEQEET [S2L], the protein stability index was 2.28.
Work on EYTIVELGSIFQQLAHMVKEQEET [S2Y] yielded a protein stability index of 1.7.
Variant EATIVELGSIFQQLAHMVKEQEET [S2A] has a protein stability index of 1.39.
For EPTIVELGSIFQQLAHMVKEQEET [S2P], the protein stability index was 1.7.
Work on EWTIVELGSIFQQLAHMVKEQEET [S2W] yielded a protein stability index of 2.19.
With EHTIVELGSIFQQLAHMVKEQEET [S2H] the protein stability index was 1.92.
EETIVELGSIFQQLAHMVKEQEET [S2E] gave a protein stability index of 2.62.
EDTIVELGSIFQQLAHMVKEQEET [S2D] gave a protein stability index of 2.47.
With EQTIVELGSIFQQLAHMVKEQEET [S2Q] the protein stability index was 1.97.
In the case of ECTIVELGSIFQQLAHMVKEQEET [S2C], the protein stability index is reported as 3.01.
